Reference: the supplement of paper PMC10567573

B1: LOXL2 (parent)
chain: RLLRFSSQIHNNGQSDFRPKNGRH
B2: EPB41L3 (parent)
chain: KKFLTLGSKFRYSGRTQAQTRRAS

Variants of: B1
Assay: protein stability index of a GFP-peptide fusion (GPS, HEK-293T) (PSI 1-6); higher = more stable
Conditions: c terminus: a fixed tail appended
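Note: lentivirally expressed fusions sorted by FACS into six bins by GFP to DsRed ratio, PSI derived from sequencing read proportions per bin multiplied by bin number.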

Variant	protein stability index
RLLRFSSQIHNNGQSDFRPKNGMH	1.84
RLLRFSSQIHNNGQSDFRPKNGCH	1.97
RLLRFSSQIHNNGQSDFRPKNGNH	3.03
RLLRFSSQIHNNGQSDFRPKNGGH	2.71
RLLRFSSQIHNNGQSDFRPKNGQH	2.4
RLLRFSSQIHNNGQSDFRPKNGKH	2.8
RLLRFSSQIHNNGQSDFRPKNGEH	3.2
RLLRFSSQIHNNGQSDFRPKNGVH	2.41
RLLRFSSQIHNNGQSDFRPKNGTH	3.29
RLLRFSSQIHNNGQSDFRPKNGLH	2.04
RLLRFSSQIHNNGQSDFRPKNGAH	2.36
RLLRFSSQIHNNGQSDFRPKNGIH	1.82
RLLRFSSQIHNNGQSDFRPKNGWH	1.91
RLLRFSSQIHNNGQSDFRPKNGPH	2.46
RLLRFSSQIHNNGQSDFRPKNGYH	2.61
RLLRFSSQIHNNGQSDFRPKNGHH	2.36
RLLRFSSQIHNNGQSDFRPKNGFH	1.84
RLLRFSSQIHNNGQSDFRPKNGDH	2.99
RLLRFSSQIHNNGQSDFRPKNGSH	3.14

Variant	protein stability index
RLLRFSSQIHNNGQSDFRPKNMRH	2.27
RLLRFSSQIHNNGQSDFRPKNHRH	2.4
RLLRFSSQIHNNGQSDFRPKNTRH	2.39
RLLRFSSQIHNNGQSDFRPKNIRH	2.19
RLLRFSSQIHNNGQSDFRPKNYRH	2.71
RLLRFSSQIHNNGQSDFRPKNQRH	2.89
RLLRFSSQIHNNGQSDFRPKNRRH	2.47
RLLRFSSQIHNNGQSDFRPKNSRH	3.02
RLLRFSSQIHNNGQSDFRPKNVRH	2.01
RLLRFSSQIHNNGQSDFRPKNDRH	2.94
RLLRFSSQIHNNGQSDFRPKNKRH	2.62
RLLRFSSQIHNNGQSDFRPKNNRH	2.58
RLLRFSSQIHNNGQSDFRPKNERH	2.4
RLLRFSSQIHNNGQSDFRPKNCRH	2.4
RLLRFSSQIHNNGQSDFRPKNLRH	2.49
RLLRFSSQIHNNGQSDFRPKNFRH	2.11
RLLRFSSQIHNNGQSDFRPKNPRH	2.7
RLLRFSSQIHNNGQSDFRPKNWRH	2.22
RLLRFSSQIHNNGQSDFRPKNGRM	2.68

Variant	protein stability index
RLLRFSSQIHNNGQSDFRPKNGRD	2.86
RLLRFSSQIHNNGQSDFRPKNGRR	2.74
RLLRFSSQIHNNGQSDFRPKNGRY	2.67
RLLRFSSQIHNNGQSDFRPKNGRK	3.5
RLLRFSSQIHNNGQSDFRPKNGRI	2.54
RLLRFSSQIHNNGQSDFRPKNGRP	2.95
RLLRFSSQIHNNGQSDFRPKNGRE	3.12
RLLRFSSQIHNNGQSDFRPKNGRG	3.2
RLLRFSSQIHNNGQSDFRPKNGRC	2.14
RLLRFSSQIHNNGQSDFRPKNGRW	2.83
RLLRFSSQIHNNGQSDFRPKNGRN	2.89
RLLRFSSQIHNNGQSDFRPKNGRA	2.88
RLLRFSSQIHNNGQSDFRPKNGRV	2.52
RLLRFSSQIHNNGQSDFRPKNGRF	2.38
RLLRFSSQIHNNGQSDFRPKNGRS	3
RLLRFSSQIHNNGQSDFRPKNGRQ	3.16
RLLRFSSQIHNNGQSDFRPKNGRT	2.76
RLLRFSSQIHNNGQSDFRPKNGRL	2.47

Variants of: B2
Assay: as above
Conditions: c terminus: a fixed tail appended

Variant	protein stability index
KKFLTLGSKFHYSGRTQAQTRRAS	3.7
KKFLTLGSKFNYSGRTQAQTRRAS	2.63
KKFLTLGSKFRYSTRTQAQTRRAS	3.81
KKFLTLGSKFRYSVRTQAQTRRAS	2.96
KKFLTLGSKFRYSFRTQAQTRRAS	2.56
KKFLTLGSKFRYSDRTQAQTRRAS	2.81
KKFLTLGSKFRYSERTQAQTRRAS	3.75
KKFLTLGSKFRYSHRTQAQTRRAS	3.57
KKFLTLGSKFRYSQRTQAQTRRAS	3.56
KKFLTLGSKFRYSRRTQAQTRRAS	3.38
KKFLTLGSMFRYSGRTQAQTRRAS	2.27
KKFLTLGSNFRYSGRTQAQTRRAS	1.99
KKFLTLGSIFRYSGRTQAQTRRAS	2.6
YKFLTLGSKFRYSGRTQAQTRRAS	2.23
SKFLTLGSKFRYSGRTQAQTRRAS	2.76
GKFLTLGSKFRYSGRTQAQTRRAS	3.83
WKFLTLGSKFRYSGRTQAQTRRAS	1.91
TKFLTLGSKFRYSGRTQAQTRRAS	2.38
MKFLTLGSKFRYSGRTQAQTRRAS	4.46

Variant	protein stability index
KKFLTLGSKFRYSGRTQAQTRRSS	2.96
KKFLTLGSKFRYSGRTQAQTRRRS	4.08
KKFLTLGSKFRYSGRTQAQTRRMS	2.49
KKFLTLGSKFRYSGRTQAQTRRIS	3.4
KKFLTLGSKFRYSGRTQAQTRRKS	3.81
KKFLTLGSKFRYSGRTQAQTRRES	3.21
KKFLTLGSKFRYSGRTQAQTRRLS	3.66
KKFLTLGSKFRYMGRTQAQTRRAS	2.87
KKFLTLGSKFRYIGRTQAQTRRAS	2.34
KKFLTLGSKFRYAGRTQAQTRRAS	2.63
KKFLTLGSKFRYTGRTQAQTRRAS	2.74
KKFLTLGSKFRYKGRTQAQTRRAS	3.96
KKFLTLGSKFRYNGRTQAQTRRAS	3.95
KKFLTLGSKFRYPGRTQAQTRRAS	2.55
KKFLTLGSKFRYSGRTQAWTRRAS	2.58
KKFLTLGSKFRYSGRTQAATRRAS	2.68
KKFLTLGSKFRYSGRTQASTRRAS	2.45
KKFLTLGSKFRYSGRTQAHTRRAS	2.52
KKFLTLGSKFRYSGRTFAQTRRAS	1.76
